Reference: patent US20070269861A1

How the values were obtained:
[1] = target: Crotalus durissus terrificus (C.d.t.) venom; experiment: ELISA, venom-coated wells; dilution 1:5
[2] = target: Crotalus durissus terrificus (C.d.t.) venom; experiment: ELISA, venom-coated wells; dilution 1:25
[3] = target: Crotalus durissus terrificus (C.d.t.) venom; experiment: ELISA, venom-coated wells; dilution 1:125
[4] = target: Crotalus durissus terrificus (C.d.t.) venom; experiment: ELISA, venom-coated wells; dilution 1:625
[5] = target: Crotalus durissus terrificus (C.d.t.) venom; experiment: ELISA, venom-coated wells; dilution 1:3125
[6] = target: Crotalus durissus terrificus (C.d.t.) venom; experiment: ELISA, venom-coated wells; dilution 1:62,500
[7] = target: Crotalus durissus terrificus (C.d.t.) venom; experiment: ELISA, venom-coated wells; dilution 1:312,500
[8] = target: Crotalus durissus terrificus (C.d.t.) venom; experiment: ELISA, venom-coated wells (5 µg/ml); undiluted
[9] = target: Crotalus durissus terrificus (C.d.t.) venom; experiment: ELISA, venom-coated wells (5 µg/ml); dilution 1:5
[10] = target: Crotalus durissus terrificus (C.d.t.) venom; experiment: ELISA, venom-coated wells (5 µg/ml); dilution 1:25
[11] = target: Crotalus durissus terrificus (C.d.t.) venom; experiment: ELISA, venom-coated wells (5 µg/ml); dilution 1:125
[12] = target: Crotalus durissus terrificus (C.d.t.) venom; experiment: ELISA, venom-coated wells (5 µg/ml); dilution 1:625
[13] = target: Crotalus durissus terrificus (C.d.t.) venom; experiment: ELISA, venom-coated wells (5 µg/ml); dilution 1:3125

Substance: preimmune IgY (PEG preparation from eggs of unimmunized hens) (antibody)
- absorbance 412 nm [1]: < 0 absorbance
- absorbance 412 nm [2]: 0.016 absorbance
- absorbance 412 nm [3]: < 0 absorbance
- absorbance 412 nm [4]: < 0 absorbance
- absorbance 412 nm [5]: < 0 absorbance
- absorbance 412 nm [6]: 0.001 absorbance
- absorbance 412 nm [7]: 0.01 absorbance
- absorbance 412 nm [8]: 0.003 absorbance
- absorbance 412 nm [9]: < 0 absorbance
- absorbance 412 nm [10]: 0 absorbance
- absorbance 412 nm [11]: 0.003 absorbance
- absorbance 412 nm [12]: 0 absorbance
- absorbance 412 nm [13]: 0.002 absorbance
